{"source": "paper PMC7046727", "key": {"[1]": {"biological_target": "sLif_(Y99A), variant of soluble P. aeruginosa Lif with Y99 mutated to alanine (Pseudomonas aeruginosa)", "assay": "other fluorescence titration; sLif / sLif_(Y99A) labelled with BDP FL (1.2 nM label, total about 24 nM) with 0-50 uM LipA overnight at 4 °C in 10 mM glycine buffer pH 9; steady-state anisotropy and average translational diffusion time (FCS) on a confocal microscope (sLif_(Y99A): diffusion time only); 1:1 binding model; apparent KD"}, "[2]": {"biological_target": "sLif, soluble form of Pseudomonas aeruginosa lipase-specific foldase Lif that lacks the transmembrane domain (TMD) (Pseudomonas aeruginosa)", "assay": "other fluorescence titration; sLif / sLif_(Y99A) labelled with BDP FL (1.2 nM label, total about 24 nM) with 0-50 uM LipA overnight at 4 °C in 10 mM glycine buffer pH 9; steady-state anisotropy and average translational diffusion time (FCS) on a confocal microscope (sLif_(Y99A): diffusion time only); 1:1 binding model; apparent KD"}}, "data": [{"substance": "lipase LipA of Pseudomonas aeruginosa, pre-active form refolded in vitro (enzyme)", "values": [{"measurement": "Kd", "setting": "[1]", "result": 77, "unit": "nM"}, {"measurement": "Kd", "setting": "[2]", "result": 29, "unit": "nM"}]}]}
